In patent US20030087827:
Like-named read-outs stand apart in the source and are kept apart here.

Experiments:
[1] = tested on: T1, Nona-L-arginine
T1 sequence: RRRRRRRRR

[2] = tested on: pERTKR-MCA (pyr-Glu-Arg-Thr-Lys-Arg-methylcoumarinamide); experiment: enzyme assay, hydrolysis of fluorogenic substrate, least squares fit (EnzFitter)
[3] = target: T2, Hexa-L-arginine
T2 chain: RRRRRR

[4] = target: T3, Nona-L-arginine
T3 chain: RRRRRRRRR

[5] = target: T4, Hexa-D-arginine
T4 chain: RRRRRR

[6] = target: pERTKR-MCA (pyr-Glu-Arg-Thr-Lys-Arg-methylcoumarinamide); experiment: enzyme assay, hydrolysis of fluorogenic substrate, least squares fit (EnzFitter); remark: listed apart in the source

B1: proprotein convertase PC2 (enzyme, UniProt P16519 110-638, looked up, species assumed)
Neuroendocrine convertase 2: GYRDINEIDINMNDPLFTKQWYLINTGQADGTPGLDLNVAEAWELGYTGKGVTIGIMDDGIDYLHPDLASNYNAEASYDFSSNDPYPYPRYTDDWFNSHGTRCAGEVSAAANNNICGVGVAYNSKVAGIRMLDQPFMTDIIEASSISHMPQLIDIYSASWGPTDNGKTVDGPRELTLQAMADGVNKGRGGKGSIYVWASGDGGSYDDCNCDGYASSMWTISINSAINDGRTALYDESCSSTLASTFSNGRKRNPEAGVATTDLYGNCTLRHSGTSAAAPEAAGVFALALEANLGLTWRDMQHLTVLTSKRNQLHDEVHQWRRNGVGLEFNHLFGYGVLDAGAMVKMAKDWKTVPERFHCVGGSVQDPEKIPSTGKLVLTLTTDACEGKENFVRYLEHVQAVITVNATRRGDLNINMTSPMGTKSILLSRRPRDDDSKVGFDKWPFMTTHTWGEDARGTWTLELGFVGSAPQKGVLKEWTLMLHGTQSAPYIDQVVRDYQSKLAMSKKEELEEELDEAVERSLKSILNKN
With B1 the “cleavage of the peptide by PC2 (HPLC)” value [1] was “essentially no cleavage was observed after 24 h of incubation (results not shown)” and the Km [2] was “The Kms of PC1, PC2, furin, and PACE4 were determined as 11, 42, 8, and 15 µM, respectively”.

B2: proprotein convertase PC1 (enzyme, UniProt P29120 111-753, looked up, species assumed)
Neuroendocrine convertase 1: SALRDSALNLFNDPMWNQQWYLQDTRMTAALPKLDLHVIPVWQKGITGKGVVITVLDDGLEWNHTDIYANYDPEASYDFNDNDHDPFPRYDPTNENKHGTRCAGEIAMQANNHKCGVGVAYNSKVGGIRMLDGIVTDAIEASSIGFNPGHVDIYSASWGPNDDGKTVEGPGRLAQKAFEYGVKQGRQGKGSIFVWASGNGGRQGDNCDCDGYTDSIYTISISSASQQGLSPWYAEKCSSTLATSYSSGDYTDQRITSADLHNDCTETHTGTSASAPLAAGIFALALEANPNLTWRDMQHLVVWTSEYDPLANNPGWKKNGAGLMVNSRFGFGLLNAKALVDLADPRTWRSVPEKKECVVKDNDFEPRALKANGEVIIEIPTRACEGQENAIKSLEHVQFEATIEYSRRGDLHVTLTSAAGTSTVLLAERERDTSPNGFKNWDFMSVHTWGENPIGTWTLRITDMSGRIQNEGRIVNWKLILHGTSSQPEHMKQPRVYTSYNTVQNDRRGVEKMVDPGEEQPTQENPKENTLVSKSPSSSSVGGRRDELEEGAPSQAMLRLLQSAFSKNSPPKQSPKKSPSAKLNIPYENFYEALEKLNKPSQLKDSEDSLYNDYVDVFYNTKPYKHRDDRLLQALVDILNEEN
With B2 the Km [2] was “The Kms of PC1, PC2, furin, and PACE4 were determined as 11, 42, 8, and 15 µM, respectively”.

B3: recombinant truncated mouse furin (protein)
chain: DVYQEPTDPKFPQQWYLSGVTQRDLNVKEAWAQGFTGHGIVVSILDDGIEKNHPDLAGNYDPGASFDVNDQDPDPQPRYTQMNDNRHGTRCAGEVAAVANNGVCGVGVAYNARIGGVRMLDGEVTDAVEARSLGLNPNHIHIYSASWGPEDDGKTVDGPARLAEEAFFRGVSQGRGGLGSIFVWASGNGGREHDSCNCDGYTNSIYTLSISSATQFGNVPWYSEACSSTLATTYSSGNQNEKQIVTTDLRQKCTESHTGTSASAPLAAGIIALTLEANKNLTWRDMQHLVVQTSKPAHLNADDWATNGVGRKVSHSYGYGLLDAGAMVALAQNWTTVAPQRKCIVEILVEPKDIGKRLEVRKAVTACLGEPNHITRLEHVQARLTLSYNRRGDLAIHLISPMGTRSTLLAARPHDYSADGFNDWAFMTTHSWDEDPAGEWVLEIENTSEANNYGTLTKFTLVLYGTAPEGLSTPPESSGCKTLTSSQACVVCEEGYSLHQKSCVQHCPPGFIPQVLDTHYSTENDVEIIRASVCTPCHASCATCQGPAPTDCLSCPSHASLDPVEQTCSRQSQSSRESRPQQQPPALRPEVEMEPRLQAGLASHLPE
B3 was tested, and the “cleavage of the peptide by furin (HPLC)” value [3] was “essentially no cleavage was seen after six hours incubation with furin (results not shown). After 24 hours, partial digestion of hexa-L-arginine (SEQ ID NO 14) had occurred, producing some penta-L-arginine”, the “cleavage of the peptide by furin (HPLC)” value [4] was “Cleavage of nona-L-arginine (SEQ ID NO 13) was first observed ˜40 min after reaction with furin had commenced, with the appearance of hexa- and hepta-L-arginine” and the “cleavage of the peptide by furin (HPLC)” value [5] was “essentially no cleavage was observed after 24 h of incubation (results not shown)”. For the same protein, the Km [6] was “The Kms of PC1, PC2, furin, and PACE4 were determined as 11, 42, 8, and 15 µM, respectively”.

B4: proprotein convertase PACE4 (enzyme, UniProt P29122 150-969, looked up, species assumed)
Proprotein convertase subtilisin/kexin type 6: QVRSDPQALYFNDPIWSNMWYLHCGDKNSRCRSEMNVQAAWKRGYTGKNVVVTILDDGIERNHPDLAPNYDSYASYDVNGNDYDPSPRYDASNENKHGTRCAGEVAASANNSYCIVGIAYNAKIGGIRMLDGDVTDVVEAKSLGIRPNYIDIYSASWGPDDDGKTVDGPGRLAKQAFEYGIKKGRQGLGSIFVWASGNGGREGDYCSCDGYTNSIYTISVSSATENGYKPWYLEECASTLATTYSSGAFYERKIVTTDLRQRCTDGHTGTSVSAPMVAGIIALALEANSQLTWRDVQHLLVKTSRPAHLKASDWKVNGAGHKVSHFYGFGLVDAEALVVEAKKWTAVPSQHMCVAASDKRPRSIPLVQVLRTTALTSACAEHSDQRVVYLEHVVVRTSISHPRRGDLQIYLVSPSGTKSQLLAKRLLDLSNEGFTNWEFMTVHCWGEKAEGQWTLEIQDLPSQVRNPEKQGKLKEWSLILYGTAEHPYHTFSAHQSRSRMLELSAPELEPPKAALSPSQVEVPEDEEDYTAQSTPGSANILQTSVCHPECGDKGCDGPNADQCLNCVHFSLGSVKTSRKCVSVCPLGYFGDTAARRCRRCHKGCETCSSRAATQCLSCRRGFYHHQEMNTCVTLCPAGFYADESQKNCLKCHPSCKKCVDEPEKCTVCKEGFSLARGSCIPDCEPGTYFDSELIRCGECHHTCGTCVGPGREECIHCAKNFHFHDWKCVPACGEGFYPEEMPGLPHKVCRRCDENCLSCAGSSRNCSRCKTGFTQLGTSCITNHTCSNADETFCEMVKSNRLCERKLFIQFCCRTCLLAG
B4 was tested, and the Km [2] was “The Kms of PC1, PC2, furin, and PACE4 were determined as 11, 42, 8, and 15 µM, respectively”.
